Measurements from US10705101B2, “Determination of the unbound free fatty acid profiles in biological and industrial specimens” (priority 2013, dated 2020).
Substitutions are numbered along the chain they refer to. Names and notes keep the numbering of the source. Blank lines part the entries; values can stand above or below the molecule they belong to.

Assays:
Assay type in all cases: binding
[1] = Probe response profile / specificity for different FFAu at 1 nM; details: FFAu giving the largest response to 1 nM of each FFAu; several listed in order of degree of specificity
Source text: The abbreviations are: arachidonate (AA), docosahexaenoate (DHA), eicosapentaenoate (EPA), laurate (LAU), linoleate (LA), linolenate (LNA), myristate (MA), oleate (OA), palmitate (PA), palmitoleate (POA), stearate (SA), and vaccenate (VA).
Examples of probes used, generally in groups of 10 or more, to determine FFAu profiles in biological samples such as blood plasma or serum from animals and humans or media from microorganisms are shown in Table 2. In the sequences presented in Table 2 and the sequence listing, amino acids are numbered from the first residue of the mature protein. The initiator methionine residue of the wild-type protein is removed by aminopeptidase activity, leaving an alanine as residue 1. Thus, counting backwards and skipping 0, the initiator methionine is at residue position −1. Specificity indicates the FFAu that gives the largest response to 1 nM of each FFAu when one FFAu dominates the profile and more than one when there is a more even distribution of specificity. Where more than one is indicated they are listed in order of degree of specificity. The abbreviations are: arachidonate (AA), docosahexaenoate (DHA), eicosapentaenoate (EPA), laurate (LAU), linoleate (LA), linolenate (LNA), myristate (MA), oleate (OA), palmitate (PA), palmitoleate (POA), stearate (SA), and vacsinate (VA). The sequences indicate mutations relative to SEQ ID NO: 1. This sequence is a mutated rat intestinal fatty acid binding protein with a Glu 131 to Asp substitution and includes a COOH-terminal affininity tag comprising […], Gly 133 and 6 histidines.
The response profile is the fluorescence change as evaluated as (R−Ro)/Ro (ΔR/Ro) for each FFAu added as a complex of the FFA and albumin so that the FFAu concentration is clamped or buffered at 1 nM for every FFAu for which a calibration has been performed. The calculation is performed simply by rearranging equation 2 to solve for ΔR/Ro. […] However all the probes have different profiles and therefore complementary specificities for different FFAu. Abbreviations are as in Table 2.

[2] = Probe calibration by titration with FFA / FFA-BSA complexes: SA; details: equilibrium dissociation constant of probe for SA; read-out: Kd SA
Description: (§1) Calibration: Each probe is calibrated to the extent that the constants in Equation 2 are well determined for all FFAu to be included in profile calculations. Equation 2, which is the form of equation 1 for a single FFAu, relates the FFAu concentration to the equilibrium dissociation constant (Kd), fluorometric constants (Q and Rm) and the measured R values.
(§2) The calibration parameters are determined essentially as described in U.S. Pat. No. 7,601,510 which is incorporated herein by reference and (Huber et al Biochemistry (2006) 45:14263-14274) where the calibrated ADIFAB2 probe was used to generate FFA-BSA complexes with accurate and well buffered FFAu concentrations. To calibrate probes with substantially higher affinities than used in U.S. Pat. No. 7,601,510 and (Huber et al Biochemistry (2006) 45:14263-14274) a boot strap method is used in which a probe having higher affinities is calibrated with ADTFAB2. Such a probe is then used to generate FFA-BSA complexes with FFAu concentrations from 0.1 to 10 nM and these complexes are then used to calibrate other high affinity probes.
(§3) Probe calibration involves titrating the probes with either (i) un-buffered FFA or (ii) BSA-buffered FFA stocks. The un-buffered titrations involve measuring the R-value of a 1 μM probe solution as it is slowly titrated to saturation with small aliquots of a 100 to 250 μM FFA stock (Richieri G V et al. (1992) J Biol Chem 267: 23495-23501, Richieri G V et al. (1999) Mol Cell Biochem 192: 87-94). In this case, the total FFA concentration for each point in the titration is known and a nonlinear fit to the titration data yields the full set of fluorometric constants. In an un-buffered FFA titration, probe concentration is a key variable because the probe binds FFA, directly affecting the FFAu value.
(§4) Alternatively, in a BSA-buffered FFA calibration, the probe solution is titrated with a series of FFA-BSA complexes (600 μM BSA with [FFAu] ranging from 0.1 nM to 4 μM). The titration samples are FFA-BSA complex diluted 50-fold in Measuring Buffer. Probe is added to a concentration of 0.5 μM and the R-value is measured. Because BSA buffers FFAu, its concentration remains constant (i.e. known), even after the addition of probe. […] At least two calibrations with each of the up to 15 different FFA are performed for each probe.
(§5) All of the probes reveal substantial differences for different FFAu and in many cases these differences are related to the aqueous solubility of the FFA. For example, of the FFA in Table 3, SA is the least soluble and MA the most soluble. As discussed in (Richieri G V et al (2000) Biochemistry 39: 7197-7204) the tendency of natural proteins and FABPs, in particular, is for binding constants to be largest (smallest Kd) for the least soluble FFA and conversely for the most soluble FA. In two cases, ADIFAB2 and L11, Kd for SA is substantially the smallest and MA the largest and that pattern is more or less maintained for most of the other probes in Table3 with the exception of L83. In that case MA has the largest affinity while SA's more than 10 fold smaller. To some extent the other calibrations constants follow that behavior; Q is largest for the smallest Kd and Rmax is often largest, so that the probe response tends to be larger for FFA with the larger affinities. The ability to generate mutations that overcome the “natural thermodynamics” allows for probes that have a wide range of specificities and sensitivities than enable the determination of FFAu profiles.

[3] = Probe calibration by titration with FFA / FFA-BSA complexes: LNA; details: equilibrium dissociation constant of probe for LNA
Description: as §1, §2, §3, §4, §5

[4] = Probe calibration by titration with FFA / FFA-BSA complexes: PA; details: equilibrium dissociation constant of probe for PA
Description: as §1, §2, §3, §4, §5

[5] = Probe calibration by titration with FFA / FFA-BSA complexes: POA; details: equilibrium dissociation constant of probe for POA
Description: as §1, §2, §3, §4, §5

[6] = Probe calibration by titration with FFA / FFA-BSA complexes: AA; details: equilibrium dissociation constant of probe for AA
Description: as §1, §2, §3, §4, §5

[7] = Probe calibration by titration with FFA / FFA-BSA complexes: LA; details: equilibrium dissociation constant of probe for LA
Description: as §1, §2, §3, §4, §5

[8] = Probe calibration by titration with FFA / FFA-BSA complexes: OA; details: equilibrium dissociation constant of probe for OA
Description: as §1, §2, §3, §4, §5

[9] = Probe calibration by titration with FFA / FFA-BSA complexes: DHA; details: equilibrium dissociation constant of probe for DHA
Description: as §1, §2, §3, §4, §5

[10] = Probe calibration by titration with FFA / FFA-BSA complexes: MA; details: equilibrium dissociation constant of probe for MA
Description: as §1, §2, §3, §4, §5

B1: L35P22E8: acrylodan-labeled mutant FABP probe: M18L, I23L, G31N, L36R, L38V, L72W, A73T, D74A, R106A, Q115E, Y117V (protein, UniProt P02693 2-132, looked up, variant M18L I23L G31N L36R L38V L72W A73T D74A R106A Q115E Y117V)
Fatty acid-binding protein, …: AFDGTWKVDRNENYEKFLEKMGLNVVKRKLNAHDNRKVTITQEGNKFTVKESSNFRNIDVVFELGVDFAYSWTAGTELTGTWTMEGNKLVGKFKRVDNGKELIAVAEISGNELIETVTYEGVEAKRIFKKE
modifications: acrylodan label
notes: acrylodan-labeled mutant FABP probe: M18L, I23L, G31N, L36R, L38V, L72W, A73T, D74A, R106A, Q115E, Y117V
Specificity [1]: DHA/AA

B2: L35P10C4: acrylodan-labeled mutant FABP probe: M18L, G31N, L36Y, L72W, A73T, D74A, R106A, Q115E, Y117V (protein, UniProt P02693 2-132, looked up, variant M18L G31N L36Y L72W A73T D74A R106A Q115E Y117V)
Fatty acid-binding protein, …: B1 Fatty acid-binding protein, … with L23I, R36Y, V38L
modifications: acrylodan label
notes: acrylodan-labeled mutant FABP probe: M18L, G31N, L36Y, L72W, A73T, D74A, R106A, Q115E, Y117V
Specificity [1]: DHA/AA

B3: L128P18 A7: acrylodan-labeled mutant FABP probe: Y14W, M18L, M21I, I23L, K27C, G31G, L38V, S71M, L72W, A73T, D74P, A104I, R106A, Q115E, Y117V (protein, UniProt P02693 2-132, looked up, variant Y14W M18L M21I I23L K27C G31G L38V S71M L72W A73T D74P A104I R106A Q115E Y117V)
Fatty acid-binding protein, …: B1 Fatty acid-binding protein, … with Y14W, M21I, K27C, N31G, R36L, S71M, A74P, A104I
modifications: acrylodan label
notes: acrylodan-labeled mutant FABP probe: Y14W, M18L, M21I, I23L, K27C, G31G, L38V, S71M, L72W, A73T, D74P, A104I, R106A, Q115E, Y117V
Specificity [1]: DHA/AA

B4: L9BP6 H3: acrylodan-labeled mutant FABP probe: L38Y, F62W, L72A, Y117A (protein, UniProt P02693 2-132, looked up, variant L38Y F62W L72A Y117A)
Fatty acid-binding protein, …: AFDGTWKVDRNENYEKFMEKMGINVVKRKLGAHDNLKYTITQEGNKFTVKESSNFRNIDVVWELGVDFAYSAADGTELTGTWTMEGNKLVGKFKRVDNGKELIAVREISGNELIQTATYEGVEAKRIFKKE
modifications: acrylodan label
notes: acrylodan-labeled mutant FABP probe: L38Y, F62W, L72A, Y117A
Specificity [1]: SA/OA/PA

B5: L10P7 A4: acrylodan-labeled mutant FABP probe: Y14L, M18L, G31Y, A73L, Y117A (protein, UniProt P02693 2-132, looked up, variant Y14L M18L G31Y A73L Y117A)
Fatty acid-binding protein, …: B4 Fatty acid-binding protein, … with Y14L, M18L, G31Y, Y38L, W62F, A72L, A73L
modifications: acrylodan label
notes: acrylodan-labeled mutant FABP probe: Y14L, M18L, G31Y, A73L, Y117A
Specificity [1]: AA/DHA/OA/EPA/LA

Kd [2]: 17.6 nM
Kd [3]: 89 nM
Kd [4]: 5.6 nM
Kd [5]: 87.9 nM
Kd [6]: 90.6 nM
Kd [7]: 42.2 nM
Kd [8]: 33.9 nM
Kd [9]: 206 nM
Kd [10]: 47.8 nM
B6: L2P22 G6: acrylodan-labeled mutant FABP probe: M18I, G31Y, A73G (protein, UniProt P02693 2-132, looked up, variant M18I G31Y A73G)
Fatty acid-binding protein, …: B4 Fatty acid-binding protein, … with M18I, G31Y, Y38L, W62F, A72L, A73G, A117Y
modifications: acrylodan label
notes: acrylodan-labeled mutant FABP probe: M18I, G31Y, A73G

B7: L118P4 H5: acrylodan-labeled mutant FABP probe: Y14W, M18Q, K27C, L72A, D74Q, R106W (protein, UniProt P02693 2-132, looked up, variant Y14W M18Q K27C L72A D74Q R106W)
Fatty acid-binding protein, …: B4 Fatty acid-binding protein, … with Y14W, M18Q, K27C, Y38L, W62F, D74Q, R106W, A117Y
modifications: acrylodan label
notes: acrylodan-labeled mutant FABP probe: Y14W, M18Q, K27C, L72A, D74Q, R106W
Specificity [1]: DHA
